{"source": "patent US11813311B2", "about": "“Treatment and prevention of metabolic diseases” (Singapore Health Services PTE LTD., priority 2019, dated 2023)", "molecules": {"B1": {"name": "X209: mouse anti-mouse IL-11Rα IgG (IgG1κ), neutralising; VH SEQ ID NO:24, VL SEQ ID NO:25 (antibody, V domains shown)", "VH": "QVQLQQPGAELVRPGSSVKLSCKASGYTFTNYWMHWLKQRPVQGLEWIGNIGPSDSKTHYNQKFKDKATLTVDKSSSTAYMQLNSLTSEDSAVYYCARGDYVLFTYWGQGTLVTVSA", "VL": "DIVLTQSPATLSLSPGERATLSCRASQSISNNLHWYQQKSHEAPRLLIKYASQSISGIPARFSGSGSGTDFTLSFSSLETEDFAVYFCQQSYSWPLTFGQGTKLEIK", "modifications": "Enx209 VH; Enx209 VL"}}, "key": {"mouse Il11ra1": {"molecular_target": "T1, mouse Il11ra1 (Mus musculus, UniProt Q64385)", "T1 sequence (Q64385 24-432)": "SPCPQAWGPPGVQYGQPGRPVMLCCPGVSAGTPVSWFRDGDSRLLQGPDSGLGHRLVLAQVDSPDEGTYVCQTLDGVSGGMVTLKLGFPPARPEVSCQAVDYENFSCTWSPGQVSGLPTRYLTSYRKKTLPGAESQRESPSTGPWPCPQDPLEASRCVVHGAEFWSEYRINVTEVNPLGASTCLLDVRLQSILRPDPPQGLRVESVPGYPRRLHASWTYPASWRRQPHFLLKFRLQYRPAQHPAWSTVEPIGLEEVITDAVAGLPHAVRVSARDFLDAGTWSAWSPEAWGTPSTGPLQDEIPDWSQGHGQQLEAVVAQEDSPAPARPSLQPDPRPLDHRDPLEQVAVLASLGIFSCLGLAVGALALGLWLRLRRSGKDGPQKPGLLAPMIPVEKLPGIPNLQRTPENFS", "assay": "Binding of X209 to mouse Il11ra1 (Octet)", "conditions": "Octet system", "protocol": "Binding of X209 to human IL11RA was measured on Biacore T200 (GE Healthcare). X209 was immobilized onto an anti-mouse capture chip. Interaction assays were performed with HEPES-buffered saline pH 7.4 containing 0.005% P20 and 0.5% BSA. A concentration range (1.56 nM to 100 nM) of the analyte (human IL11 RA) was injected over X209 and reference surfaces at a flow rate of 40 μl min^−1. Binding to mouse Il11ra1 was confirmed on Octet system (ForteBio) using a similar strategy. All sensograms were aligned and double-referenced^4. Affinity and kinetic constants were determined by fitting the corrected sensorgrams with 1:1 Langmuir model. The equilibrium binding constant KD was determined by the ratio of kd/ka."}, "HSCs": {"system": "HSCs", "assay": "HSC-to-myofibroblast transformation (ACTA2/Collagen I, Operetta)", "format": "cell-based, human", "conditions": "antibody 2 μg/ml, 24 h", "protocol": "Cells (atrial fibroblasts, HSCs and hepatocytes) were grown and maintained at 37° C. and 5% CO2. The growth medium was renewed every 2-3 days and cells were passaged at 80-90% confluence using standard trypsinization techniques. All the experiments were carried out at low cell passage (P1-P2). Cells were serum-starved for 16 h prior to stimulations. Stimulated cells were compared to unstimulated cells that have been grown for the same duration under the same conditions (serum-free media), but without the stimuli.\nHSCs (5300, ScienCell) were cultured in stellate cells complete media (5301, ScienCell) on poly-L-lysine-coated plates (2 μg/cm2, 0403, ScienCell).\nThe Operetta assay was performed mostly as described previously 11 with minor modifications described here: HSCs or hepatocytes were seeded in 96-well black CellCarrier plates (PerkinElmer) at a density of 5×10^3 cells per well. Following experimental conditions, cells were fixed in 4% paraformaldehyde (PFA, 28908, Thermo Fisher), permeabilized with 0.1% Triton X-100 (Sigma) and non-specific sites were blocked with 0.5% BSA and 0.1% Tween-20 in PBS. Cells were incubated overnight (4° C.) with primary antibodies (1:500), followed by incubation with the appropriate AlexaFluor 488 secondary antibodies (1:1000). Rhodamine Phalloidin staining (1:1000, R415, Thermo Fisher) was performed by overnight incubation (4° C.). […]"}, "ERK": {"system": "ERK", "assay": "ERK activation in HSCs (Western blot)", "format": "cell-based, human", "conditions": "HSCs, antibody 2 μg/ml", "protocol": "Western blots were carried out on total protein extracts from HSCs and liver tissues. Both cells and frozen tissues were homogenized in radioimmunoprecipitation assay (RIPA) buffer containing protease and phosphatase inhibitors (Thermo Scientifics), followed by centrifugation to clear the lysate. Protein concentrations were determined by Bradford assay (Bio-Rad). Equal amount of protein lysates were separated by SDS-PAGE, transferred to PVDF membrane, and subjected to immunoblot analysis for the indicated primary antibodies. Proteins were visualized using the ECL detection system (Pierce) with the appropriate secondary antibodies."}, "[1]": {"system": "primary human hepatocytes", "assay": "Palmitate loading (lipotoxicity) of primary human hepatocytes", "format": "cell-based", "protocol": "Palmitate:BSA conjugated solution in the ratio of 6:1 was prepared as described earlier (Alsabeeh et al., 2018). Palmitate (0.5 mM) conjugated in fatty acids free BSA was used to treated cells as described in figure legends; 0.5% BSA solution was used as control. […]\nPrimary human hepatocytes were seeded on 8-well chamber slides (1×10^4 cells/well). For this experiment, cells were not serum-starved prior to palmitate treatment. 24 hours following palmitate stimulation, cells were washed, incubated with 25 μM of DCFDA solution (ab113851, Abcam) for 45 minutes at 37° C. in the dark, and rinsed with dilution buffer according to the manufacturer's protocol. Live cells with positive DCF staining were imaged with filter set appropriate for fluorescein (FITC) using a fluorescence microscope (Leica). […]\nWestern blots were carried out on total protein extracts from hepatocytes and liver tissues. Hepatocyte and liver tissue lysates were homogenized in RIPA Lysis and Extraction Buffer (89901, Thermo Scientific) containing protease and phosphatase inhibitors (Roche). Protein lysates were separated by SDS-PAGE and transferred to PVDF membranes. Protein bands were visualized using the ECL detection system (Pierce) with the appropriate secondary antibodies: anti-rabbit HRP or anti-mouse HRP."}, "PSCs": {"system": "PSCs", "assay": "Pancreatic stellate cell (PSC) activation in vitro", "format": "cell-based", "conditions": "24 hours", "protocol": "FIGS. 48A and 48B. Box plots and images showing activation of pancreatic stellate cells (PSCs) to a αSMA-positive, collagen-expressing fibrogenic phenotype. (A) Quantification of high-content imaging assays for the percentage of ACTA2-positive cells and collagen I intensity/area following in vitro stimulation of PSCs for 24 hours with the indicated factors, in the presence or absence of neutralising anti-IL-11 RA antibody or IgG isotype control antibody. (B) Representative images for high-content imaging analysis of collagen I intensity/area following in vitro stimulation of PSCs for 24 hours with the indicated factors, in the presence of neutralising anti-IL-11 RA antibody or IgG isotype control antibody."}}, "data": [{"molecule": "B1", "values": [{"measurement": "Binding to mouse Il11ra1", "setting": "mouse Il11ra1", "value": "confirmed"}, {"measurement": "HSC transformation downstream of all factors, including IL-11", "setting": "HSCs", "value": "abolished"}, {"measurement": "ERK phosphorylation downstream of all factors, including IL-11", "setting": "ERK", "value": "abolished"}, {"measurement": "palmitate-induced signaling events", "setting": "[1]; Western blot", "value": "largely inhibited"}, {"measurement": "secretion of cytokines (IL11, IL6, CCL2, CCL5)", "setting": "[1]; X209 2 μg/ml or sgp130 1 μg/ml", "value": "reduced the secretion of all cytokines"}, {"measurement": "NOX4 upregulation by palmitate", "setting": "[1]; palmitate", "value": "inhibited"}, {"measurement": "caspase3 activation", "setting": "[1]; palmitate", "value": "largely inhibited"}, {"measurement": "fatty acid synthase (FASN) upregulation", "setting": "[1]; palmitate", "value": "largely inhibited"}, {"measurement": "triglyceride accumulation", "setting": "[1]; palmitate", "value": "largely inhibited"}, {"measurement": "ROS production", "setting": "[1]; sFA-loaded hepatocytes", "value": "prevent ROS production"}, {"measurement": "glutathione (GSH) levels", "setting": "[1]; sFA-loaded hepatocytes", "value": "partial restoration"}, {"measurement": "PSC activation irrespective of the stimulus (TGFβ1, IL-11, bFGF, CTGF, PDGF or ET-1)", "setting": "PSCs", "value": "inhibited"}]}]}
